Data: US20100209422A1 (ROCKEFELLER UNIVERSITY, published 2010)

Key:
[1] = target: T1, protofibrillar (PF) form of Aβ42 (human); assay: SPR (BIAcore), ratio of PF binding to LMW binding
T1 construct: also called PF Aβ42; protofibril form of Aβ
Protocol: (§1) The purified monoclonal antibodies listed in Table 1 (below), were immobilized to a BIAcore sensor chip in accordance with publish protocols. (Nice, et al. BioEssays 21: 339-352 (1999)). The high sensitivity of the BIAcore optical response quantifies a change in reflectivity and a baseline response for the ligand alone is generated. The interaction analysis is performed as the analytes, the LMW form or the PF form of […], are injected in solution over the sensor chip and the change in surface plasmon resonance generates a response identifying the specificity of each antibody's ability to bind LMW and PF Aβ42. Both the 13C3 and the 19A6 antibodies all bound to the PF form of Aβ 42 with higher specificity than the LMW form.

[2] = target: T1, protofibrillar (PF) form of Aβ42; assay: SPR (BIAcore), ratio of PF binding to LMW binding; remark: listed apart in the source
Protocol: as §1
Automated BIAcore systems, which use the detection principle of Surface Plasmon Resonance, were used in these experiments.

T1 sequence (peptide, as listed by the source): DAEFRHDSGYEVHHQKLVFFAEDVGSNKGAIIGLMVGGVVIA

- Ratio (PF/LMW) [1]: 5
- binding ratio (PF/LMW) [2]: 5.3
B1: monoclonal antibody 13C3 (antibody, IgG1, V domains shown)
VH: QVQLQQSGPELVRPGVSVKISCKGSGYTFTDYAMHWVKQSHAKSLEWIGVISTKYGKTNYNQKFKGKATMTVDKSSSTAYMELARLTSEDSAIYYCARGDDGYSWGQGTSVTVSS
VL: DVVMTQTPLSLPVSLGDQASISCRSGQSLVHSNGNTYLHWYLQKPGQSPKLLIYTVSNRFSGVPDRFSGSGSGSDFTLKISRVEAEDLGVYFCSQNTFVPWTFGGGTKLEIKR
notes: Hybridoma ATCC PTA-8830; also called mAb 13C3; anti-Aβ antibody clone 13C3
